Reference: article PMC5756042, “Molecular Defects of the Disease-Causing Human Arrestin-1 C147F Mutant” (Investigative Ophthalmology & Visual Science, 2018)

Biological target: T1, light-activated unphosphorylated rhodopsin (bovine, UniProt P02699 1-348)
T1 construct: source: purified from cow eyes; unphosphorylated; rhodopsin-containing membranes
Experiment: radioligand binding; direct binding assay: 1 nM radiolabelled arrestin-1 (50 fmol) with 0.3 μg P-Rh* or Rh* (0.22 μM) in 50 μL of 50 mM Tris-HCl pH 7.4, 100 mM potassium acetate, 1 mM EDTA, 1 mM dithiothreitol, 5 minutes at 37°C under room light; bound and free separated at 4°C on Sepharose 2B-CL; scintillation counting; nonspecific binding subtracted
Details: one partner purified

T1 sequence (P02699 whole entry): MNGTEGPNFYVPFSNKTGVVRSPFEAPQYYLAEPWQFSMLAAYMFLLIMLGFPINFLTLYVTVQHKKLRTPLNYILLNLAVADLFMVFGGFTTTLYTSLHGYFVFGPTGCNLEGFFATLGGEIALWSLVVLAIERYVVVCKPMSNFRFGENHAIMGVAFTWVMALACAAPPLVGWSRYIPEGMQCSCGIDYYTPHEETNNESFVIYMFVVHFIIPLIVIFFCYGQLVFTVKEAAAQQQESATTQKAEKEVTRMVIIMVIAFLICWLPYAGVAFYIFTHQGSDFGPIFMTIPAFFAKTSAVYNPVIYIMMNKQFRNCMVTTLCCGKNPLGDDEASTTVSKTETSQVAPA

Row | Binder | fold increase of Rh* binding against WT [fold]
1 | human arrestin-1 C147F mutant (natural protein, UniProt P10523 1-405, looked up, labeled with 14C-Leu and 3H-Leu, human arrestin-1 with the disease-causing C147F mutation (dominant retinitis pigmentosa in humans), transcription construct in pGEM2; The mutation occurs in human patients; here it was introduced into the transcription construct by PCR; also called CF; source: in vitro translated (rabbit reticulocyte lysate), radiolabelled) MAASGKTSKSEPNHVIFKKISRDKSVTIYLGNRDYIDHVSQVQPVDGVVLVDPDLVKGKKVYVTLTCAFRYGQEDIDVIGLTFRRDLYFSRVQVYPPVGAASTPTKLQESLLKKLGSNTYPFLLTFPDYLPCSVMLQPAPQDSGKSFGVDFEVKAFATDSTDAEEDKIPKKSSVRLLIRKVQHAPLEMGPQPRAEAAWQFFMSDKPLHLAVSLNKEIYFHGEPIPVTVTVTNNTEKTVKKIKAFVEQVANVVLYSSDYYVKPVAMEEAQEKVPPNSTLTKTLTLLPLLANNRERRGIALDGKIKHEDTNLASSTIIKEGIDRTVLGILVSYQIKVKLTVSGFLGELTSSEVATEVPFRLMHPQPEDPAKESYQDANLVFEEFARHNLKDAGEAEEGKRDKNDVDE | > 2
2 | human arrestin-1 C147I mutant (natural protein, UniProt P10523 1-405, looked up, labeled with 14C-Leu and 3H-Leu, source: in vitro translated (rabbit reticulocyte lysate), radiolabelled) MAASGKTSKSEPNHVIFKKISRDKSVTIYLGNRDYIDHVSQVQPVDGVVLVDPDLVKGKKVYVTLTCAFRYGQEDIDVIGLTFRRDLYFSRVQVYPPVGAASTPTKLQESLLKKLGSNTYPFLLTFPDYLPCSVMLQPAPQDSGKSIGVDFEVKAFATDSTDAEEDKIPKKSSVRLLIRKVQHAPLEMGPQPRAEAAWQFFMSDKPLHLAVSLNKEIYFHGEPIPVTVTVTNNTEKTVKKIKAFVEQVANVVLYSSDYYVKPVAMEEAQEKVPPNSTLTKTLTLLPLLANNRERRGIALDGKIKHEDTNLASSTIIKEGIDRTVLGILVSYQIKVKLTVSGFLGELTSSEVATEVPFRLMHPQPEDPAKESYQDANLVFEEFARHNLKDAGEAEEGKRDKNDVDE | > 2
3 | human arrestin-1 C147L mutant (natural protein, UniProt P10523 1-405, looked up, labeled with 14C-Leu and 3H-Leu, source: in vitro translated (rabbit reticulocyte lysate), radiolabelled) MAASGKTSKSEPNHVIFKKISRDKSVTIYLGNRDYIDHVSQVQPVDGVVLVDPDLVKGKKVYVTLTCAFRYGQEDIDVIGLTFRRDLYFSRVQVYPPVGAASTPTKLQESLLKKLGSNTYPFLLTFPDYLPCSVMLQPAPQDSGKSLGVDFEVKAFATDSTDAEEDKIPKKSSVRLLIRKVQHAPLEMGPQPRAEAAWQFFMSDKPLHLAVSLNKEIYFHGEPIPVTVTVTNNTEKTVKKIKAFVEQVANVVLYSSDYYVKPVAMEEAQEKVPPNSTLTKTLTLLPLLANNRERRGIALDGKIKHEDTNLASSTIIKEGIDRTVLGILVSYQIKVKLTVSGFLGELTSSEVATEVPFRLMHPQPEDPAKESYQDANLVFEEFARHNLKDAGEAEEGKRDKNDVDE | > 2
